T1: His-telethonin (full length, pET DUET-1, N-terminal 6x Histidine tag), co-expressed with nesprin-2 SR51-53 (UniProt O15273 1-167)
T1 construct: telethonin, full length; printed mass 19 kDa; source: E. coli BL21(DE3)pLysS, co-expressed with nesprin-2 SR51-53, co-purified (His-trap, SEC); not shown: 6x His, N-terminal, kept
T1 sequence (looked up): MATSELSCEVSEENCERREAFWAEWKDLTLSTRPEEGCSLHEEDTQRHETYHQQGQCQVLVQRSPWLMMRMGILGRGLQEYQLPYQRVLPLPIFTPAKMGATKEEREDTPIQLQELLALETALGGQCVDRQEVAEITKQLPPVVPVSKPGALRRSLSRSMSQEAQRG


Experiments:
[1] = biological target: nesprin-2, endogenous ~200 kDa band of neonatal rat heart and neonatal rat cardiomyocytes; test: co-immunoprecipitation with telethonin antibody, Western blot densitometry; conditions: lysates harvested 48 h after adenoviral infection, n = 5, parent: est. 1.0, read off a plot
[2] = biological target: T1, His-telethonin (full length, pET …); test: SEC; His-telethonin and untagged nesprin-2 SR51-53 co-expressed in E. coli, His-trap, Superdex 200 16/60, then Superdex 75 10/300; 50 mM Tris/HCl pH 7.5, 150 mM NaCl, 100 mM βME; single peak at 10.29 ml, both proteins found by Western blot; conditions: both partners purified

Molecule	ratio to parent [1]	stoichiometry N [2]
HA-tagged WT telethonin expressed from adenovirus in neonatal rat cardiomyocytes (from UniProt O15273) S157A; S161A	4.8	–
nesprin-2 SR51-53 (no tag), co-expressed with His-telethonin (domain or fragment, human, UniProt Q8WXH0 6018-6354, looked up, nesprin-2 giant, human, spectrin repeats 51-53, amino acids 6018-6354 of the full length of nesprin-2 giant; in CDF DUET-1 without a tag; printed mass 40.51 kDa; source: E. coli BL21(DE3)pLysS, co-expressed with His-telethonin, co-purified (His-trap, SEC)) KETFAFIQQLDKNMSNLRTWLARIESELSKPVVYDVCDDQEIQKRLAEQQDLQRDIEQHSAGVESVFNICDVLLHDSDACANETECDSIQQTTRSLDRRWRNICAMSMERRMKIEETWRLWQKFLDDYSRFEDWLKSAERTAACPNSSEVLYTSAKEELKRFEAFQRQIHERLTQLELINKQYRRLARENRTDTASRLKQMVHEGNQRWDNLQRRVTAVLRRLRHFTNQREEFEGTRESILVWLTEMDLQLTNVEHFSESDADDKMRQLNGFQQEITLNTNKIDQLIVFGEQLIQKSEPLDAVLIEDELEELHRYCQEVFGRVSRFHRRLTSCTPGL	–	1 nesprin-2 SR51-53 per telethonin

— publication PMC11078644, “Nesprin-2 is a novel scaffold protein for telethonin and FHL-2 in the cardiomyocyte sarcomere” (The Journal of Biological Chemistry, 2024)
